Here are results for one sequence from PMC2856455 (Journal of molecular biology, 2010).

The target in one test is MDM2 (Homo sapiens, UniProt Q00987). The test is described as follows: SPR-based competition binding assay, synthetic 25–109MDM2.
The target in a further test is T1, MDMX (Homo sapiens, UniProt O15151).
T1 sequence (O15151 24-108): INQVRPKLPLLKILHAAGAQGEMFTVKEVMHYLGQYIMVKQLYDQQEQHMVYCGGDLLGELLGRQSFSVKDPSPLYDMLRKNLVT
The test is described as follows: SPR-based competition binding assay, synthetic 24–108MDMX.

The mark [1] stands for this setting: calculated binding free energy relative to PMI.

For TSFAEYWNLASP [L10A-PMI], the “ΔΔG(kcal/mol), PMI-MDM2” value with MDM2 (setting [1]) is 3.28 kcal/mol. In addition, the “preference between MDM2 and MDMX” value in the test with MDM2 (comparison of binding affinities for MDM2 and MDMX) is reported as “higher binding affinity for MDMX than for MDM2”. Further, in the test with MDM2 (mutation more deleterious to MDM2 than to MDMX), the “difference in relative binding free energy, MDM2 versus MDMX” value is on record as 1.0 kcal/mol. The “Kd ratio, PMI-MDM2” value in the test with MDM2 (relative to PMI) worked out at 277. In addition, the “ΔΔG, PMI-MDMX” value with MDMX (setting [1]) is given as 2.28 kcal/mol. Further, the “Kd ratio (kcal/mol), PMI-MDMX” value with MDMX (relative to PMI) is reported as 50 kcal/mol.
